Assay results taken from patent publication CN114560932A (MILITARY MEDICINE RES INSTITUTE OF CHINESE PEOPLE …, dated 2022).

Experiments:
鼠疫菌F1重组蛋白 = 鼠疫菌F1重组蛋白 (Yersinia pestis, UniProt P26948 22-170)
鼠疫杆菌V重组蛋白 = 鼠疫杆菌V重组蛋白 (Yersinia pestis, UniProt P0C7U7 1-326); assay: ELISA, antigen coated at 2 μg/mL, mhS1 at 20 μg/mL, goat anti-human IgG-HRP
鼠疫杆菌V重组蛋白, sequence (P0C7U7 whole entry): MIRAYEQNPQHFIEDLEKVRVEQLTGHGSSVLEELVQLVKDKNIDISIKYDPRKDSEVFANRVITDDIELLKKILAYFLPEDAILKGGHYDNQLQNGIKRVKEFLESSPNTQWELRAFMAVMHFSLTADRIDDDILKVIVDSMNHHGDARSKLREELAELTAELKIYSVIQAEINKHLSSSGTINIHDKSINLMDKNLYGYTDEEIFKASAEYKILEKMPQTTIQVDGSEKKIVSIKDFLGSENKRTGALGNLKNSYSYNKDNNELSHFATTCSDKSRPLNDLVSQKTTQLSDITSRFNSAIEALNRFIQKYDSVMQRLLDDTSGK

鼠疫菌F1重组蛋白, sequence (P26948 22-170 limits assumed): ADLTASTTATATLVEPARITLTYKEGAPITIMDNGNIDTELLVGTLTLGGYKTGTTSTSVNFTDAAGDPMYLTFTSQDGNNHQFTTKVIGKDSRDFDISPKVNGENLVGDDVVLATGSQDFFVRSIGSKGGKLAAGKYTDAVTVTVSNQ

B1: 人鼠嵌合全抗体mhS1 (antibody, V domains shown)
VH: QVQLKESGAELVKPGASVKLSCTASGFNIKDTYIHWMKQRPEQGLEWIGRIDPANGHSIYDPKFQGKATITADASSNAAYLQLSSLTSEDTAVYYCARSYGYEKRYAMDYWGQGTSVTVSS
VL: DIVMTQTTSSLSASLGDRVTISCSASQGISNYLNWYQQKPDGTVKVLIYYTSTLHSGVPSRFSGSGSGTDYSLTISNLEPEDIATYYCQQYSKLPWTFGGGTKLEMKR
鼠疫菌F1重组蛋白
  EC50: 0.0114 nM
鼠疫杆菌V重组蛋白
  binding result: no binding (tested: 20μg/mL)
